According to patent US20230220589A1:

Target: M17-modified S NTAA target peptides
Assay: encoding assay; P2 A;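 also: fraction of recording tags encoded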

encoding yield: 0.01
B1: upgraded binder after additional maturation round (SEQ ID NO: 62) (designed binder, not shown: small tags and cut ends; large carriers)
chain: TVPDRSEIAGKWYVVALASNTEFYLRGKDRVKSAMVRISFQGEDELKVSSAVPSPNGCYKVERTWKKTSDDGEVYNSRAAKLKVEVLDTDYKSYAVIYATRVKDRRTDHQMILYSRSPDVSPAATAIFRKLAGERNYTDEMVAMLPRQEECTVDEV
